From publication PMC11577422
Where two headings read alike, the source gives them in different places.

Substrate: Cc1ccco1
Type: in vitro ADME, human

B1: CYP 2E1 (Homo sapiens) (protein)
chain: MSALGVTVALLVWAAFLLLVSMWRQVHSSWNLPPGPFPLPIIGNLFQLELKNIPKSFTRLAQRFGPVFTLYVGSQRMVVMHGYKAVKEALLDYKDEFSGRGDLPAFHAHRDRGIIFNNGPTWKDIRRFSLTTLRNYGMGKQGNESRIQREAHFLLEALRKTQGQPFDPTFLIGCAPCNVIADILFRKHFDYNDEKFLRLMYLFNENFHLLSTPWLQLYNNFPSFLHYLPGSHRKVIKNVAEVKEYVSERVKEHHQSLDPNCPRDLTDCLLVEMEKEKHSAERLYTMDGITVTVADLFFAGTETTSTTLRYGLLILMKYPEIEEKLHEEIDRVIGPSRIPAIKDRQEMPYMDAVVHEIQRFITLVPSNLPHEATRDTIFRGYLIPKGTVVVPTLDSVLYDNQEFPDPEKFKPEHFLNENGKFKYSDYFKPFSTGKRVCAGEGLARMELFLLLCAILQHFNLKPLVDPKDIDLSPIHIGFGCIPPRYKLCVIPRS
For B1, the Km (other: CYP 2E1; I) high substrate concentrations) was “I) 1966.76; II) 23.29 μM” and the Km (other: CYP 2E1; II) low substrate concentrations) was 23.3 µM.
